Source: the Human Domainome abundance scans (Beltran et al. 2025)
± gives the uncertainty stated by the source.

B1: Tripartite motif-containing protein 44, residues 174 to 218; numbered along this chain, Q96DX7 (parent)
chain: VAKRKCPDHGLDLSTYCQEDRQLICVLCPVIGAHQGHQLSTLDEA

Variants of: B1
Assay: abundance fitness (aPCA) (normalised: wild type 0, dead -1); higher = more abundant; growth selection in yeast, the domain comes from the species named
Details: Homo sapiens

Row | Variant | abundance fitness
1 | Q35T | -0.037 ± 0.029
2 | Q35E | -0.021 ± 0.028
3 | Q35K | 0.002 ± 0.037
4 | Q35G | -0.152 ± 0.025
5 | Q35F | -0.162 ± 0.048
6 | Q35M | -0.031 ± 0.033
7 | Q35H | 0.008 ± 0.036
8 | Q35W | -0.186 ± 0.029
9 | Q35C | -0.089 ± 0.031
10 | Q35D | -0.143 ± 0.035
11 | Q35S | -0.063 ± 0.027
12 | Q35L | -0.105 ± 0.027
13 | Q35I | -0.045 ± 0.036
14 | Q35A | -0.054 ± 0.027
15 | Q35V | -0.035 ± 0.027
16 | Q35Y | -0.067 ± 0.044
17 | Q35N | -0.092 ± 0.044
18 | Q35R | -0.1 ± 0.026
19 | G32R | -0.492 ± 0.029
20 | G32I | -0.757 ± 0.1
21 | G32M | -0.663 ± 0.053
22 | G32Q | -0.491 ± 0.046
23 | G32P | -0.22 ± 0.037
24 | G32S | -0.393 ± 0.036

Row | Variant | abundance fitness
25 | G32F | -0.871 ± 0.14
26 | G32H | -0.49 ± 0.046
27 | G32C | -0.575 ± 0.042
28 | G32L | -0.775 ± 0.042
29 | G32Y | -0.743 ± 0.1
30 | G32D | -0.417 ± 0.035
31 | G32W | -0.778 ± 0.038
32 | G32E | -0.355 ± 0.03
33 | G32K | -0.261 ± 0.043
34 | G32A | -0.425 ± 0.028
35 | G32V | -0.674 ± 0.033
36 | G32N | -0.465 ± 0.055
37 | A33E | -0.032 ± 0.031
38 | A33D | -0.068 ± 0.032
39 | A33W | -0.148 ± 0.032
40 | A33V | -0.05 ± 0.028
41 | A33K | -0.006 ± 0.032
42 | A33Y | -0.094 ± 0.046
43 | A33I | -0.031 ± 0.045
44 | A33L | -0.079 ± 0.027
45 | A33C | -0.048 ± 0.035
46 | A33N | -0.014 ± 0.042
47 | A33H | -0.031 ± 0.039
48 | A33S | 0.019 ± 0.029

Row | Variant | abundance fitness
49 | H34Y | -0.665 ± 0.067
50 | H34K | -0.634 ± 0.057
51 | H34L | -0.925 ± 0.051
52 | H34E | -0.647 ± 0.075
53 | H34T | -0.665 ± 0.042
54 | H34V | -0.802 ± 0.037
55 | H34C | -0.107 ± 0.035
56 | H34P | -0.701 ± 0.046
57 | H34S | -0.689 ± 0.039
58 | H34R | -0.653 ± 0.03
59 | H34F | -0.776 ± 0.063
60 | H34G | -0.65 ± 0.029
61 | H34A | -0.673 ± 0.035
62 | H34D | -0.575 ± 0.045
63 | H34Q | -0.605 ± 0.043
64 | H34I | -0.717 ± 0.067
65 | H34W | -0.895 ± 0.046
66 | S40D | -0.032 ± 0.039
67 | S40C | -0.027 ± 0.032
68 | S40F | -0.108 ± 0.041
69 | S40P | -0.044 ± 0.031
70 | S40M | -0.103 ± 0.032
71 | S40A | -0.008 ± 0.027
72 | S40I | -0.079 ± 0.058

Row | Variant | abundance fitness
73 | S40W | -0.177 ± 0.027
74 | S40T | -0.066 ± 0.029
75 | S40H | 0.022 ± 0.038
76 | S40K | -0.041 ± 0.032
77 | S40R | -0.033 ± 0.026
78 | S40G | 0.015 ± 0.025
79 | S40N | -0.118 ± 0.048
80 | S40Q | 0.012 ± 0.038
81 | S40L | -0.084 ± 0.029
82 | S40E | -0.012 ± 0.029
83 | S40V | -0.083 ± 0.027
84 | G36A | -0.131 ± 0.028
85 | G36S | -0.117 ± 0.03
86 | G36L | -0.266 ± 0.028
87 | G36W | -0.409 ± 0.03
88 | G36N | -0.007 ± 0.052
89 | G36I | -0.623 ± 0.13
90 | G36D | -0.071 ± 0.047
91 | G36H | -0.033 ± 0.046
92 | G36R | -0.158 ± 0.026
93 | G36C | -0.172 ± 0.035
94 | G36F | -0.193 ± 0.059
95 | G36K | -0.128 ± 0.033
96 | G36M | -0.245 ± 0.031

Row | Variant | abundance fitness
97 | G36Q | -0.088 ± 0.032
98 | G36E | -0.048 ± 0.029
99 | G36V | -0.519 ± 0.03
100 | G36P | -0.561 ± 0.044
101 | G36Y | -0.363 ± 0.067
102 | I31N | 0.059 ± 0.037
103 | I31P | -0.306 ± 0.038
104 | I31S | 0.097 ± 0.028
105 | I31Y | -0.077 ± 0.043
106 | I31W | -0.13 ± 0.029
107 | I31R | 0.003 ± 0.026
108 | I31T | 0.052 ± 0.029
109 | I31Q | 0.028 ± 0.031
110 | I31V | 0.032 ± 0.027
111 | H37F | -0.931 ± 0.085
112 | H37E | -0.565 ± 0.033
113 | H37S | -0.678 ± 0.038
114 | H37L | -0.839 ± 0.039
115 | H37W | -0.95 ± 0.055
116 | H37C | -0.055 ± 0.033
117 | H37P | -0.588 ± 0.04
118 | H37R | -0.677 ± 0.03
119 | H37N | -0.584 ± 0.063
120 | H37Y | -0.849 ± 0.071

Row | Variant | abundance fitness
121 | H37I | -1.01 ± 0.12
122 | H37M | -0.676 ± 0.038
123 | H37K | -0.606 ± 0.042
124 | H37D | -0.589 ± 0.042
125 | H37Q | -0.599 ± 0.043
126 | H37A | -0.679 ± 0.032
127 | T41C | -0.029 ± 0.032
128 | T41D | 0.016 ± 0.034
129 | T41A | 0.024 ± 0.027
130 | T41E | 0.02 ± 0.028
131 | L39M | 0.028 ± 0.03
132 | L39Q | 0.033 ± 0.032
133 | L39S | -0.021 ± 0.031
134 | L39I | -0.024 ± 0.054
135 | L39V | -0.019 ± 0.027
136 | L39K | -0.06 ± 0.034
137 | L39G | -0.041 ± 0.025
138 | L39D | -0.025 ± 0.035
139 | L39Y | -0.129 ± 0.05
140 | L39C | -0.06 ± 0.034
141 | L39R | -0.011 ± 0.027
142 | L39N | -0.043 ± 0.056
143 | L39P | -0.032 ± 0.034
144 | L39F | -0.026 ± 0.05

Row | Variant | abundance fitness
145 | L39W | -0.035 ± 0.028
146 | L39T | 0.019 ± 0.033
147 | L39A | -0.02 ± 0.029
148 | L39H | 0.011 ± 0.05
149 | L39E | -0.021 ± 0.029
150 | Q38T | 0.039 ± 0.033
151 | Q38H | 0.024 ± 0.045
152 | Q38L | -0.061 ± 0.03
153 | Q38V | -0.071 ± 0.027
154 | Q38I | -0.045 ± 0.047
155 | Q38N | 0.029 ± 0.035
156 | Q38P | -0.03 ± 0.032
157 | Q38F | -0.079 ± 0.047
158 | Q38D | 0.036 ± 0.04
159 | Q38R | -0.006 ± 0.026
160 | Q38W | -0.255 ± 0.031
161 | Q38Y | -0.145 ± 0.044
162 | Q38E | 0.007 ± 0.028
163 | Q38G | -0.009 ± 0.026
164 | Q38C | -0.051 ± 0.037
165 | Q38M | 0 ± 0.032
166 | Q38A | -0.032 ± 0.028
167 | Q38K | 0.03 ± 0.031
